Assay results: US20040058394A1 (Biogen, published 2004)

How the values were obtained:
[1] = target: T1, lymphotoxin beta receptor (LT-β-R) (human, UniProt P36941 31-435); experiment: FACS staining of HT-29 cells with conditioned medium, PE anti-human IgG
T1 construct: whole, on cells; also called LT-β receptor
Protocol: Expression vectors were co-transfected into 293-EBNA cells and transfected cells were tested for antibody secretion and specificity (empty vector-transfected cells served as negative control). […] To examine the individual contributions of each of these changes, new heavy chain expression vectors were constructed. Plasmid pAND089, the F37V variant of VH#2, was made by subcloning the 311 bp NotI-PstI fragment from pAND075, the 126 bp PstI-HindIII fragment from pAND071, and the 1.21 kb HindIII-NotI fragment from the plasmid pEAG964 into the NotI site of the pCEP4 EBV expression vector-derived plasmid pCH269. Plasmid pAND090, the V93A variant of VH#2, was made by subcloning the 311 bp NotI-PstI fragment from pAND071, the 126 bp PstI-HindIII fragment from pAND075, and the 1.21 kb HindIII-NotI fragment from the plasmid pEAG964 into the NotI site of the pCEP4 EBV expression vector-derived plasmid pCH269. These H2/H3 chimeric heavy chains were co-transfected into 293-EBNA cells with VL#2 or VL#3. […] The pAND076 and pAND090 pairing was designated huCBE11 #4 (Table 1 supra).
Conditioned medium from transiently transfected cells was used to stain HT-29 cells by incubating for 30 min on ice, washing cells twice with FACS buffer (PBS with 5% FBS and 0.05% sodium azide), staining with PE-conjugated anti-human IgG (H+L), Jackson ImmunoResearch Laboratories, Inc., for 30 min on ice in FACS buffer, washing cells twice with FACS buffer, and resuspending in FACS buffer for analysis.

[2] = target: T1, lymphotoxin beta receptor (LT-β-R); experiment: FACS titration on HT-29 cells, 4°C, non-specific binding subtracted, four parameter fit (functional affinity)
Protocol: HuCBE11 #4 anti-LTβR antibody and humanized anti-CD40L as a negative control were diluted in PBS and a 12 point serial 1:4 dilution was made to a final concentration range of 2.37 pM-10 μM. 100 μL cell suspension and 100 μL antibody dilution were added together to each well of a 96 well V-bottom microtiter plate. The antibody and the cells were incubated at 4° C. for 2 hours. The plate was centrifuiged at 1000 rpm (110×g) for 10 minutes at 4° C. The supernatant was discarded and the cell pellet was washed with cold PBS six times.
Goat-anti human IgG-phycoerythrin conjugate (Jackson Immunoresearch) was diluted 1:100 in PBS and 200 μL was added to each well. The cells were incubated with this secondary antibody for one hour at 4° C., centrifuged as described above, and washed once in cold PBS. The cells were then transferred to polystyrene test tubes. Fluorescence intensity was measured on a FACS Calibur instrument (Beckton Dickinson).
These specific fluorescence intensity values were then plotted against huCBE11 #4 concentrations on a log scale. The resulting curve is bell shaped and symmetrical, and reflects self-inhibition of the antibody binding at high concentrations. The left half of this curve was fit to a four parameter equation to find the functional affinity of the antibody. The resulting curve fit gives an EC₅₀ value of 60 pM for the huCBE11 #4 binding to HT-29 cells.

T1 sequence (P36941 31-435): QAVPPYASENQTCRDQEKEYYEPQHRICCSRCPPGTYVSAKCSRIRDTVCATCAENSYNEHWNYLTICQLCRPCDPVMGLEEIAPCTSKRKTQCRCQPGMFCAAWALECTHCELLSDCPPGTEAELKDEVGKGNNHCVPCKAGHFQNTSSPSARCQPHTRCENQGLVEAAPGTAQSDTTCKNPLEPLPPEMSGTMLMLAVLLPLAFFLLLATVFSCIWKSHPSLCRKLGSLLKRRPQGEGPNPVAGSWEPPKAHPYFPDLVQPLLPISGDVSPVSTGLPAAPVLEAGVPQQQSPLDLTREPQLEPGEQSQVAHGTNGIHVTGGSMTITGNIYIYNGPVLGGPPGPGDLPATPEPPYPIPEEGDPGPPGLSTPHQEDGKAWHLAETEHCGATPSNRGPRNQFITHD

Binder | Relative MFI [1] | EC50 [2]
L2/V93A H2 (VL#2 with the V93A variant of VH#2) (antibody, V domains shown, Human IgG1 / kappa constant regions; also called pAND072/pAND090) VH: EVQLVESGGGLVKPGGSLRLSCAASGFTFSDYYMYWFRQAPGKGLEWVATISDGGSYTYYPDSVKGRFTISRDNAKNSLYLQMSSLRAEDTAVYYCAREENGNFYYFDYWGQGTTVTVSS VL: DIQMTQSPSSLSASVGDRVTITCKAGQDIKSYLSWYQQKPWKAPKILIYYATRLADGVPSRFSGSGSGTDYTLTISSLQPEDFATYYCLQHGESPWTFGGGTKLEIK | 0.75 MFI normalized to chCBE11 | –
huCBE11 #4 (VL#3 with VH#4) (antibody, human IgG1, V domains shown, Full mature chains with human IgG1 and kappa constant domains; also called hCBE11; pAND076/pAND090) VH: EVQLVESGGGLVKPGGSLRLSCAASGFTFSDYYMYWFRQAPGKGLEWVATISDGGSYTYYPDSVKGRFTISRDNAKNSLYLQMSSLRAEDTAVYYCAREENGNFYYFDYWGQGTTVTVSS VL: DIQMTQSPSSLSASVGDRVTITCKAGQDIKSYLSWYQQKPGKAPKLLIYYATRLADGVPSRFSGSGSGTDYTLTISSLQPEDFATYYCLQHGESPWTFGGGTKLEIKR | 1 MFI normalized to chCBE11 | 0.06 nM
chimeric CBE11 (chCBE11) (antibody, V domains shown, the latter is followed; also called pEAG982/pEAG983) VH: EVQLVESGGGLVKPGGSLKLSCAASGFTFSDYYMYWFRQTPEKRLEWVATISDGGSYTYYPDSVKGRFTISRDNAKNNLYLQMSSLKSEDTAMYYCVREENGNFYYFDYWGQGTTVTVSS VL: DIKMTQSPSSMYASLGERVTITCKAGQDIKSYLSWYQQKPWKSPKILIYYATRLADGVPSRFSGSGSGQDYSLTISSLESDDTATYYCLQHGESPWTFGGGTKLEIK | 1 MFI normalized to chCBE11 | –
L2/H3 (VL#2 with VH#3) (antibody, human IgG1, V domains shown, Mix and match co-transfection; Human IgG1 / kappa constant regions; also called pAND072/pAND077) VH: EVQLVESGGGLVKPGGSLRLSCAASGFTFSDYYMYWVRQAPGKGLEWVATISDGGSYTYYPDSVKGRFTISRDNAKNSLYLQMSSLRAEDTAVYYCAREENGNFYYFDYWGQGTTVTVSS VL: DIQMTQSPSSLSASVGDRVTITCKAGQDIKSYLSWYQQKPWKAPKILIYYATRLADGVPSRFSGSGSGTDYTLTISSLQPEDFATYYCLQHGESPWTFGGGTKLEIK | 0.42 MFI normalized to chCBE11 | –
huCBE11 #3 (VL#3 with VH#3) (antibody, human IgG1, V domains shown, also called pAND076/pAND077) VH: EVQLVESGGGLVKPGGSLRLSCAASGFTFSDYYMYWVRQAPGKGLEWVATISDGGSYTYYPDSVKGRFTISRDNAKNSLYLQMSSLRAEDTAVYYCAREENGNFYYFDYWGQGTTVTVSS VL: DIQMTQSPSSLSASVGDRVTITCKAGQDIKSYLSWYQQKPGKAPKLLIYYATRLADGVPSRFSGSGSGTDYTLTISSLQPEDFATYYCLQHGESPWTFGGGTKLEIK | 0.62 MFI normalized to chCBE11 | –
huCBE11 #2 (VL#2 with VH#2) (antibody, human IgG1, V domains shown, also called huCBE#2; pAND072/pAND073) VH: EVQLVESGGGLVKPGGSLRLSCAASGFTFSDYYMYWFRQAPGKGLEWVATISDGGSYTYYPDSVKGRFTISRDNAKNSLYLQMSSLRAEDTAVYYCVREENGNFYYFDYWGQGTTVTVSS VL: DIQMTQSPSSLSASVGDRVTITCKAGQDIKSYLSWYQQKPWKAPKILIYYATRLADGVPSRFSGSGSGTDYTLTISSLQPEDFATYYCLQHGESPWTFGGGTKLEIK | 1 MFI normalized to chCBE11 | –
huCBE11 #1 (VL#1 with VH#1) (antibody, human IgG1, V domains shown, also called pAND068/pAND069) VH: EVQLVESGGGLVKPGGSLRLSCAASGFTFSDYYMYWFRQTPGKGLEWVATISDGGSYTYYPDSVKGRFTISRDNAKNSLYLQMSSLRAEDTAMYYCVREENGNFYYFDYWGQGTTVTVSS VL: DIKMTQSPSSLSASVGDRVTITCKAGQDIKSYLSWYQQKPWKAPKILIYYATRLADGVPSRFSGSGSGQDYTLTISSLQPEDFATYYCLQHGESPWTFGGGTKLEIK | 1 MFI normalized to chCBE11 | –
L3/H2 (VL#3 with VH#2) (antibody, human IgG1, V domains shown, Mix and match co-transfection; Human IgG1 / kappa constant regions; also called pAND076/pAND073) VH: EVQLVESGGGLVKPGGSLRLSCAASGFTFSDYYMYWFRQAPGKGLEWVATISDGGSYTYYPDSVKGRFTISRDNAKNSLYLQMSSLRAEDTAVYYCVREENGNFYYFDYWGQGTTVTVSS VL: DIQMTQSPSSLSASVGDRVTITCKAGQDIKSYLSWYQQKPGKAPKLLIYYATRLADGVPSRFSGSGSGTDYTLTISSLQPEDFATYYCLQHGESPWTFGGGTKLEIK | 1 MFI normalized to chCBE11 | –
